B1: C9orf9 (parent)
chain: LTKASLKPRGCSKPPWRPPGGKL

Variants of: B1
Assay: protein stability index of a GFP-peptide fusion (GPS, HEK-293T) (PSI 1-6); higher = more stable
Settings: c terminus: native
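Note: lentivirally expressed fusions sorted by FACS into six bins by GFP to DsRed ratio, PSI derived from sequencing read proportions per bin multiplied by bin number.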

Protein stability index of substitutions, site by site:
L6: I 1.37, R 2.17, Y 2.04, Q 4.53, T 1.87, S 2.47, H 1.89, F 2.35, P 1.9
G10: D 2.36, K 2.43, N 2.06, V 2.19, T 2.5, H 2.29, Q 1.88, C 1.97, W 2.02, Y 2.25, F 1.91, R 3.37, A 2.74, P 2.24, L 2.96, I 2.47, M 2.19, S 2.7, E 2.18
P15: V 2.02, R 2.34, L 3.21, M 1.78, H 2.18, N 1.77, W 1.16, G 2.02, E 3.93, Q 2.77, T 3.08, I 2.36, Y 2.73, D 3.75
R17: S 4.71, M 3.49, D 3.87, Q 4.16, N 4.2, F 3.37, P 2.71, L 3.69, A 3.53, V 3.35, W 3.47, K 3.26
G20: C 2.91, D 4.64
R9: M 2.33, I 1.85, W 2.31, H 1.35, S 1.95, N 2.07, F 1.15, Q 2.68, G 1.37, E 1.9, A 1.7, L 2.96, C 3.36, T 1.45, V 2.91, P 1.34, Y 3.3
W16: F 2.03, E 2.19, V 3.43, Y 2.25, I 1.87, G 2.29
K7: N 2.32, E 1.51, G 1.51, H 2.31, F 1.78, A 2.72, L 1.69, V 2.25, I 1.56, S 1.53, C 1.68, T 2.25, M 2.66
P8: H 1.65, Y 2.15, A 3.56, F 2.51, W 4.77, M 2.53, Q 4.76, L 2.77
S12: L 1.66, I 2.3, H 1.53, N 2.05, A 2.42, P 1.48, E 2.02, M 5.53, C 1.49, V 2.52, W 3.5, F 1.3, T 3.8, G 1.99, R 1.34
K13: D 3.65, Q 2.3, R 1.49, I 2.1, M 2.87, S 2.62, G 2.78, E 3.46, C 2.9
C11: Q 1.54, L 2.39, P 1.65, D 1.76, G 2.13, Y 1.27, N 1.58, S 2, V 2.1, M 1.71, H 3.08, I 2.1, W 2.1
P18: Q 2.26, M 3.68, I 2.18, Y 2.86, N 2.93, H 3.78, W 2.9, L 1.32, K 2.85, R 2.46
P19: T 3.72, E 4.05, D 4.43, R 2.6, V 1.78, I 1.24, S 3.87, M 3.15, H 2.23, G 3.44, L 3.21, N 4.1, C 2.91, F 1.69, Y 1.22
P14: S 1.38, W 1.94, A 1.54, V 2.36, L 2.24

— the supplement of paper PMC10567573
